Assay: soluble on expression in E. coli; label from the status in PepcDB or PDB records

**Q.** For “MGSDKIHHHHHHMIDVAIIGGGHNGLVTAAYLAKAGLKVAVFERREIVGGASVTEELWPSIKVSTGAYVLSLLRPKIIEELKLREFGLKVYLKDPGLFLPFENGKKLYIWSSLEKTKKEIEKFSKNDAKNYKKWVKFWDLFAEMADFFMLNPPPHIDEASNLINIFRGNVNEELALSFLRTFMQDAKSLLDEYFETDEVKSALAEDSVVGTFASPSTPGTAYVLAHHVIGEVNGVKGAWGYVEGGMGEVTQALKRSAEHLGVEIYTNAEVDEVLVKNGRVEGIKLKNGKTINAKIIVSNADPKTTFFKLLRNAELEEDFLRRVRALKNVGVSFKIVGYLEELPDFGNGKSLSPEHIASELIMPNMEYIEKAYDDARALGYSREPWLSINIQSSVDPTVAPPGKFSFSIFGQYLVYDSKRNDEMKEKIAEITFEKIKEFAPNFKPIKYEVLTPLDIERRFGINGGNIFHLDMTPDQLYFFRPLIGYSDYTTPIRGLYLCGSGTHPGGGVTGAPGYNAHVKILEDLRKGIYK”, which “soluble on expression in E. coli” value is on record?
**A.** not soluble

**Q.** For “MSLKETEIIKLFQEELKSKVLGDDAGFIKLGDRWLLLTNDMLVWRTDVPDFMTPEEAGAKVVTMNVSDIAAMGGKPIGFFFSLGLPRDINEKTLREIAKGIKRGTKRYNVEVLSGDTNESNELVIDGGAIGEAERILLRSGAKPGEVVCVTGDLGRPLTALLLWLKGEKIPREIAEKMKNPIARVREGLELANYASSAIDISDGLSKELWEISKASKVKIVIDPNSLPVHEKVKEIVKNPVEVALASGEEFELVFTISQEYLDILSFEFSIIGRVEKGEGVYTTTGEKVPMRGWEHFAGGNNDIGSEGHHHHHH”, which “soluble on expression in E. coli” value is on record?
**A.** soluble

**Q.** With “TKKNELNKAHVTIALTNPKTPTNVGAVIRAAGCYQADQIIYNGNRYAQAAKYHKKTLQTDTFNMQDKIPLLQVESFIGIKDSLESIPSSAKIICVDLVEGATPLPHFIHPPEAVYIFGPEDSSVKQEVIDIADDVVYVPTVGCMNLAATVNVLLYDRLAKSL” as the sequence, how does the “soluble on expression in E. coli” value read?
**A.** not soluble

**Q.** Which “soluble on expression in E. coli” value does the source give for “MSVDSEETSSNGVVPPNSLPPKPEARFGRHVRSFSVDSDFFDDLGVTEEKFIATSSGEKKKGNHHHSRSNSMDGEMSSASFNIESILASVSGKDSGKKNMGMGGDRLAELALLDPKRAKRILANRQSAARSKERKIRYTGELERKVQTLQNEATTLSAQVTMLQRGTSELNTENKHLKMRLQALEQQAELRDALNEALRDELNRLKVVAGEIPQGNGNSYNRAQFSSQQSAMNQFGNKTNQQMSTNGQPSLPSYMDFTKRG” here?
**A.** soluble

**Q.** With “MGSDKIHHHHHHMNVRQLEAFQAVMSAGSLTAAAGLLSVSQPAVSQLIAQLEGNCGFSLFDRAGTKMRPTREAEVLHAEVQRMFIGVGRVANVAKALRDQTWGALSIASFPVLTRRMLPNIVTSFCKTRPDVKFSVESMRSRSLVDAVATQQVDLGFSILPGDRPEVDSTHVCTLRGLCILPKGHRLSKRRLIRAKDLDGEAFVALGPQDHSRFQIDKIFEEADVQRRIQVEVGQSETACSFVANGVGVAVVDPISVWNNAGADFVVCAFEPKMEFEIWLIRPKTARPFALIDTFSDYACAELMRLKEEEIDIRQPRG” as the sequence, how does the “soluble on expression in E. coli” value read?
**A.** not soluble

**Q.** Which “soluble on expression in E. coli” value does the source give for “MCLVDFGLRFNHKGRHYFKAANGEDIALSLSIGAAMFNGHPDYERLIQIADEALYIAKRRGRNRVELCKASL” here?
**A.** not soluble

**Q.** Which “soluble on expression in E. coli” value does the source give for “MGSSHHHHHHSSGLVPRGSHMKMSFRWYGKKDPVTLEEIKAIPGMQGIVTAVYDVPVGQAWPLENILELKKMVEEAGLEITVIESIPVHEDIKQGKPNRDALIENYKTSIRNVGAAGIPVVCYNFMPVFDWTRSDLHHPLPDGSTSLAFLKSDLAGVDPVADDLNLPGWDSSYSKEEMKAIIENYRQNISEEDLWANLEYFIKAILPTAEEAGVKMAIHPDDPPYGIFGLPRIITGQEAVERFLNLYDSEHNGITMCVGSYASDPKNDVLAMTEYALKRNRINFMHTRNVTAGAWGFQETAHLSQAGDIDMNAVVKLLVDYDWQGSLRPDHGRRIWGDQTKTPGYGLYDRALGATYFNGLYEANMRAAGKTPDFGIKAKTVGTKEG” here?
**A.** soluble

**Q.** Which “soluble on expression in E. coli” value does the source give for “MGSDKIHHHHHHMEKQSDSYYISAVQAGDTESFAPLVERYSDMLYALLCRLLQDEEDAADLLQDTFVKAFRHISRFDGRSSFSTWIYRIAYNEAIDHLRRHKAYVTDRVEELPDVPDEDLEPSGEDPELLQQALDSLPAADKALLLMFYSDDLSVRDIAEVTGMSESNVKVKLHRLRTKLYKMMRK” here?
**A.** not soluble

**Q.** Which “soluble on expression in E. coli” value does the source give for “MDQTIHHQIQQALHFRTAVRVYKEEKISDEDLALILDAAWLSPSSIGLEGWRFVVLDNKPIKEEIKPFAWGAQYQLETASHFILLIAEKHARYDSPAIKNSLLRRGIKEGDGLNSRLKLYESFQKEDMDMADNPRALFDWTAKQTYIALGNMMMTAALLGIDTCPIEGFHYDKVNHILAKHNVIDLEKEGIASMLSLGYRLRDPKHAQVRKPKEEVISVVK” here?
**A.** soluble

**Q.** Which “soluble on expression in E. coli” value does the source give for “MACTAADVVEEDLMSDRIANAQLRGKVMSAEEAAQFVNHGDKVGVSGFTGAGYPKALPTAIAERAKEAHARGDEYMIDLFTGASTAPDCDGVLAEADALRFRTPYQSDPILRSKINDGTTLYADYHLSESGIYVEQGFFGQMNVAIVEAVRITEEGHIVPSSSVGNNVEYLDNAEKIIIEVNSWQSEELEGMADIYRMNKLPNRQPIPITEAGQRIGTTYIDIDLSKVVAVVETDAPDRNAPFKPLDETSKQIAGHFLDFLEGEVAAGRLTYDGYVMQSGVGNVPNAVMAGLLDSKFENIKAYTEVIQDGMVDLIDAGKMTVASATSFSLSPEYAERMNAEAKNYAQKIILRPQQISNHPEVVRRLGLICTNGLIEADIYGNVNSTNVTGSRMMNGVGGSADFTRNGFISSFITPSVAKGGDISAFVPFVSHVDHTEQDVKVLISEYGYADLRGLAPRQRVEKIIAIAHPDYRPLLQDYYDRALAFAKEKKIMQTPHLLGEALSFHQRFQETGSMKK” here?
**A.** not soluble

**Q.** For “MGSDKIHHHHHHMSGIINNREYRQKVLKEIILELHNGKSVDEVRKRFQELIKGVSTKEISEMEAQLIKEGMKVEEIQRLCDVHAAVFKGSIDQIHHPEKEEGHPVSVLKKENEAVKNYIQSHLTPNLEEIKKSDSHSTRLKLMENISMLFDLDKHYSRKENLIFPYLEKYGITAPPKVMWGVDDEIREALKECKEVINSANKTPNEITEKVESTLKRIEEMIFKEESILLPMCIDTFSEDEWLDIESESDEIGYCLISPSEKWKPKRENVEEKEKSKLANENSEGYIKFDTGILRVNELSAILDTLPLDITFVDKDGTVKYFSGGSERIFARTRAVIGRKVQNCHPPASVHIVEKVVEDLKSGKKDHEDFWLHMGELYVFIRYYAVKDNKGEFIGVLEVTQNIKEIQEITGEKRLIE”, which “soluble on expression in E. coli” value is on record?
**A.** not soluble

**Q.** Which “soluble on expression in E. coli” value does the source give for “EVQLVESGGGLVQPGRSLRLSCAASGFTFDDYAMHWVRQAPGKGLEWVSGISWNSGSIGYADSVKGRFTISRDNAKNSLYLQMNSLRAEDTAVYYCARGRGFHYYYYGMDIWGQGTTVTVSSASTKGPSVFPLAPSSKSTSGGTAALGCLVKDYFPEPVTVSWNSGALTSGVHTFPAVLQSSGLYSLSSVVTVPSSSLGTQTYICNVNHKPSNTKVDKKVEPK” here?
**A.** soluble

**Q.** For “MSYRKKLTSPEDAVGLIRSGMRVFVSGNAATPTPLLKALAARKDELENVELVHLLQMGEDPFASLEMEGHFRRRSLFVGPADREAVNQGRADYVPVMLHQVPWLFKRGILPLDAAIVQVSPPDEHGFCSLGVEVIATKAAVEAAPIVIAMVNPRMPRTLGDTFVHVSRFTAIVEVDWPLPELKREGFGEVERRIGEHVAGLIEDGATLQMGIGAIPDAVLASLEGRRDLGVHTEMISDGVLEAWEKGLITGAKKSLHPGKIVGTFVLGSERLYRFVHDNPLFELHPADYVNDPFVIAQNRKMVAINSAIEVDLTGQVVADSIGTRIYSGFGGQLDFIRGAARSEGGKPIIALPSTAKGQSRIVPFLKPGAGVVTTRADVHYVVTEWGVAELFGRSLRERAKALIAIAHPDFREALLQGAWERGLLPRGYPGVDLKGLEEKRGRP”, which “soluble on expression in E. coli” value is on record?
**A.** soluble

**Q.** With “MGSDKIHHHHHHMERIEAGMSVMTLKKQTYRVIAVINQGQELLVRAHEPETADIEIIPVTTVVQVTEQNSTGDAAVALDTVTVVGERYVDDIVATLTTLRVGMAVLLQRESGNQYDDNAISVWTLQHAKLGYIARYQNQPYATLMDQGQRLYGIVTVLDQQKQHLELMLWRTTAVPSPIEALQIRQRLAKPRTNLGAVPTHSLQTPLGTIVMMCNGHPIKYQQVPLSPWLTPADELHVTKRYLLTPDWSQVPPDSLITCQVTAKADVVQRWQNEHISAAVLTNASSFYVVGISAQTKTGLNDNLVDDAAQPAVIYRVGQVSAHMQAGFMVSWAPFGDPRVQPALKLALHFSSQPLVPYHPVTPSRTNATFTQQELAALLVSALPNYQGGQRLEPSVTTITVEKLRQTLGDQTYHALANYQRHVQLVAGSTEGVNETLLQALIHAVTYHELTTMHYYQPTVGMVDQVIYPIQLFSTTTKDEDDAQLVGCLALYNYETFEIQQVPLTAIARIAIIADPEHPQTTPETESPDWLRIFLHGWNDDF” as the sequence, how does the “soluble on expression in E. coli” value read?
**A.** not soluble

**Q.** Which “soluble on expression in E. coli” value does the source give for “MGVFLFDRDCRYTVAGGGEISSAGLTPADFEGSKPHDLFSEAIADELEHYYREALDGHSHSFEQQYRGKHYRVQTVPVRDDNGEVISGLAVSEDVTARRERQRTLERQNERLREFAGVVSHDLRNPLNVAQGRLKLARAECDSEHLDNVAAAIERSNRLIDDLLTLASSGDEVTETASLDLGAVVDGCWQNVPTDGATLVVRSEQTVVADRGRLEQLLENLVRNAVEHAFPQSEVSLDAAEGDASDLTVTVGALEDGFYVEDTGPGIPPEERDDVFKGGYSTAADGTGFGLRIVRQIAEAHGWTVTVADGEHGGARFEVRGIETT” here?
**A.** not soluble

**Q.** For “ITTKKGQEGKPAINVRTEFGFTAPTKRPEMINSAQWAELYNEASGTNYYSPEVIQKYRDHSDPDLYPDVDWFDALFDDMAENQRVNLSVTGGGDNIKYYVSGSFYNESSIYKNAGNIYGYNSAIRYNKFNFRANVDLNVTKSTTLNVNLANIYEKSFGPGFGDNDNDIWSYTFNASPNAFPVQYSDGTLSGPSTDSGHNPWNMLVHSGYREQFWNSAQSLIGLTQDFGKIWEPLEGLTANIKFSWDAWNTTLQRRSKSPSFYHARGRDAEGRLMYDDNNNDGEWDPVHTGSESLGYEIGRQGTMTRYLEGSLNYNRLFGNHRVGALFLYNQKIHTNTQAADGNAALPYKNQGLAGRVTYAFRDTYFAEVNMGYNGSENFARGHRFGFFPAFALGWMVSNEKWFEPLTKTIDMLKLKGSYGKVGNDDIGGQRRWVYESTIVGTGDQGWWFGQSGNQGGAGIRVGEIENLYASWEEATKLNLGVEFSLFNKVKVQADYFREERQGIFLQRAGLPAIVGLSTIPYVNIGRTLNKGFDANVEYNHQIGKVFLTARGNFTFSRNKLLDNDEPDWEYKYQNRIGKPFGSDGQMQPFGLVALGLFQSQEEIDNSPRQTFGEYRVGDIKYQDINGDGIIDTQDEVAIGYTNLPEIMYGFGLGAQWKNWDINAFFQGSAHTSFFLDGVSVKSPFSSGNMERAAINKDLWGKVWMSTNSPEQNAHVTYPRLSNGSGGAGASNNNKNSTWWLRNGSFLRLKNIEIGYTLPKEFVTKTFIKSLRFYVSGNNLLTFSSFKLWDPEKAKGSSDGSGYPLNRVVTVGFNANF”, which “soluble on expression in E. coli” value is on record?
**A.** not soluble

**Q.** Which “soluble on expression in E. coli” value does the source give for “MTFGAGHLRAAEALIEAVRKKSPEAEITHLDFGAFISKTLNTIVKNTYIELIKHTPRLYGMFYYRTSKIRPQSLIQRFINILGRKEFLDYIKGLNPDVIICTYPVIAGVLGELRFKGVIHAPVVSVVTDYGVHSQYIQRGVDLYIAGCQDVYKDLIAGGIARERIRITGIPVDPKFEEELEHHHHHH” here?
**A.** not soluble

From the DeepSol protein solubility set
